# Measurements reported in the MegaScale stability set (Tsuboyama et al. 2023).
# B1: EEHEE_rd3_1049 (parent)
# chain: TTVKLGDIKVTFDNPEKAKKYAQKLAKIYQLTVHVHGDTIHVK
# Variants of: B1
# Assay: folding stability dG (cDNA display proteolysis); higher = more stable
# Conditions: PBS, room temperature
row,Variant,folding stability dG [kcal/mol]
1,TTVKLGDIKVTFDQPEKAKKYAQKLAKIYQLTVHVHGDTIHVK [N14Q],1.25
2,TTVKLGDIKVTFDYPEKAKKYAQKLAKIYQLTVHVHGDTIHVK [N14Y],1.05
3,TTVKLGDIKVTFDMPEKAKKYAQKLAKIYQLTVHVHGDTIHVK [N14M],1.2
4,TTVKLGDIKVTFDEPEKAKKYAQKLAKIYQLTVHVHGDTIHVK [N14E],1.4
5,TTVKLGDIKVTFDLPEKAKKYAQKLAKIYQLTVHVHGDTIHVK [N14L],1.32
6,TTVKLGDIKVTFDDPEKAKKYAQKLAKIYQLTVHVHGDTIHVK [N14D],2.38
7,TTVKLGDIKVTFDPPEKAKKYAQKLAKIYQLTVHVHGDTIHVK [N14P],0.431
8,TTVKLGDIKVTFDAPEKAKKYAQKLAKIYQLTVHVHGDTIHVK [N14A],1.18
9,TTVKLGDIKVTFDFPEKAKKYAQKLAKIYQLTVHVHGDTIHVK [N14F],1.2
10,TTVKLGDIKVTFDNPVKAKKYAQKLAKIYQLTVHVHGDTIHVK [E16V],1.85
11,TTVKLGDIKVTFDNPCKAKKYAQKLAKIYQLTVHVHGDTIHVK [E16C],2.66
12,TTVKLGDIKVTFDNPSKAKKYAQKLAKIYQLTVHVHGDTIHVK [E16S],1.7
13,TTVKLGDIKVTFDNPIKAKKYAQKLAKIYQLTVHVHGDTIHVK [E16I],1.98
14,TTVKLGDIKVTFDNPAKAKKYAQKLAKIYQLTVHVHGDTIHVK [E16A],1.94
15,TTVKLGDIKVTFDNPFKAKKYAQKLAKIYQLTVHVHGDTIHVK [E16F],1.9
16,TTVKLGDIKVTFDNPHKAKKYAQKLAKIYQLTVHVHGDTIHVK [E16H],1.8
17,TTVKLGDIKVTFDNPMKAKKYAQKLAKIYQLTVHVHGDTIHVK [E16M],1.91
18,TTVKLGDIKVTFDNPQKAKKYAQKLAKIYQLTVHVHGDTIHVK [E16Q],1.89
19,TTVKLGDIKVTFDNPYKAKKYAQKLAKIYQLTVHVHGDTIHVK [E16Y],1.9
20,TTVKLGDIKVTFDNPRKAKKYAQKLAKIYQLTVHVHGDTIHVK [E16R],1.82

row,Variant,folding stability dG [kcal/mol]
1,TTVKLGDIKVTFDNPDKAKKYAQKLAKIYQLTVHVHGDTIHVK [E16D],1.96
2,TTVKLGDIKVTFDNPTKAKKYAQKLAKIYQLTVHVHGDTIHVK [E16T],1.77
3,TTVKLGDIKVTFDNPNKAKKYAQKLAKIYQLTVHVHGDTIHVK [E16N],1.7
4,TTVKLGDIKVTFDNPGKAKKYAQKLAKIYQLTVHVHGDTIHVK [E16G],1.54
5,TTVKLGDIKVTFDNPKKAKKYAQKLAKIYQLTVHVHGDTIHVK [E16K],1.91
6,TTVKLGDIKVTFDNPPKAKKYAQKLAKIYQLTVHVHGDTIHVK [E16P],0.35
7,TTVKLGDIKVTFDNPLKAKKYAQKLAKIYQLTVHVHGDTIHVK [E16L],1.92
8,TTVKLGDIKVTFDNPWKAKKYAQKLAKIYQLTVHVHGDTIHVK [E16W],1.93
9,TTVKLGDIKVTFDNPEKLKKYAQKLAKIYQLTVHVHGDTIHVK [A18L],0.902
10,TTVKLGDIKVTFDNPEKDKKYAQKLAKIYQLTVHVHGDTIHVK [A18D],-0.113
11,TTVKLGDIKVTFDNPEKNKKYAQKLAKIYQLTVHVHGDTIHVK [A18N],0.152
12,TTVKLGDIKVTFDNPEKMKKYAQKLAKIYQLTVHVHGDTIHVK [A18M],0.64
13,TTVKLGDIKVTFDNPEKHKKYAQKLAKIYQLTVHVHGDTIHVK [A18H],0.152
14,TTVKLGDIKVTFDNPEKEKKYAQKLAKIYQLTVHVHGDTIHVK [A18E],-0.325
15,TTVKLGDIKVTFDNPEKGKKYAQKLAKIYQLTVHVHGDTIHVK [A18G],0.641
16,TTVKLGDIKVTFDNPEKFKKYAQKLAKIYQLTVHVHGDTIHVK [A18F],0.877
17,TTVKLGDIKVTFDNPEKPKKYAQKLAKIYQLTVHVHGDTIHVK [A18P],-0.013
18,TTVKLGDIKVTFDNPEKCKKYAQKLAKIYQLTVHVHGDTIHVK [A18C],2.03
19,TTVKLGDIKVTFDNPEKIKKYAQKLAKIYQLTVHVHGDTIHVK [A18I],0.682
20,TTVKLGDIKVTFDNPEKKKKYAQKLAKIYQLTVHVHGDTIHVK [A18K],0.046

row,Variant,folding stability dG [kcal/mol]
1,TTVKLGDIKVTFPNPEKAKKYAQKLAKIYQLTVHVHGDTIHVK [D13P],1.58
2,TTVKLGDIKVTFCNPEKAKKYAQKLAKIYQLTVHVHGDTIHVK [D13C],2.6
3,TTVKLGDIKVTFINPEKAKKYAQKLAKIYQLTVHVHGDTIHVK [D13I],1.96
4,TTVKLGDIKVTFHNPEKAKKYAQKLAKIYQLTVHVHGDTIHVK [D13H],1.86
5,TTVKLGDIKVTFGNPEKAKKYAQKLAKIYQLTVHVHGDTIHVK [D13G],1.69
6,TTVKLGDIKVTFQNPEKAKKYAQKLAKIYQLTVHVHGDTIHVK [D13Q],2.1
7,TTVKLGDIKVTFFNPEKAKKYAQKLAKIYQLTVHVHGDTIHVK [D13F],1.93
8,TTVKLGDIKVTFENPEKAKKYAQKLAKIYQLTVHVHGDTIHVK [D13E],1.9
9,TTVKLGDIKVTFYNPEKAKKYAQKLAKIYQLTVHVHGDTIHVK [D13Y],1.85
10,TTVKLGDIKVTFRNPEKAKKYAQKLAKIYQLTVHVHGDTIHVK [D13R],2.13
11,TTVKLGDIKVTFLNPEKAKKYAQKLAKIYQLTVHVHGDTIHVK [D13L],2.08
12,TTVKLGDIKVTFSNPEKAKKYAQKLAKIYQLTVHVHGDTIHVK [D13S],2.25
13,TTVKLGDIKVTFTNPEKAKKYAQKLAKIYQLTVHVHGDTIHVK [D13T],2.16
14,TTVKLGDIKVTFVNPEKAKKYAQKLAKIYQLTVHVHGDTIHVK [D13V],1.89
15,TTVKLGDIKVTFNNPEKAKKYAQKLAKIYQLTVHVHGDTIHVK [D13N],1.98
16,TTVKLGDIKVTFANPEKAKKYAQKLAKIYQLTVHVHGDTIHVK [D13A],2.11
17,TTVKLGDIKVTFKNPEKAKKYAQKLAKIYQLTVHVHGDTIHVK [D13K],2.2
18,TTVKLGDIKVTFWNPEKAKKYAQKLAKIYQLTVHVHGDTIHVK [D13W],2.01
19,TTVKLGDIKVTFMNPEKAKKYAQKLAKIYQLTVHVHGDTIHVK [D13M],2.12
